The text below walks through data of article doi:10.1101/2021.01.12.426377 (bioRxiv, 2021).

Data set [1] concerns the molecule itself. Kind of data set: negative-stain transmission electron microscopy.
A further data set has as its target T1, FtsA(E14R) (E. coli, UniProt P0ABH0 1-420, E14R).
T1 sequence: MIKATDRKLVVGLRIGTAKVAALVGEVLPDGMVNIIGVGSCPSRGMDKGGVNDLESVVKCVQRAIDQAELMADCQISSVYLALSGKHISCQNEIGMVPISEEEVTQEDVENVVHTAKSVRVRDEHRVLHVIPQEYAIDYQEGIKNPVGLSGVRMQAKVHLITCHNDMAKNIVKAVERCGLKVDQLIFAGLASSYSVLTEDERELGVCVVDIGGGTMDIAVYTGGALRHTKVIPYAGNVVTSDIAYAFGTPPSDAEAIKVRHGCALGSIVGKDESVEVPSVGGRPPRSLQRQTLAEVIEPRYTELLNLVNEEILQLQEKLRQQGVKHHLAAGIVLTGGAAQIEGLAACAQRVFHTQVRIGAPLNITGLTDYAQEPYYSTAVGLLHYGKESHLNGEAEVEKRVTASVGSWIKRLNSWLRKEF
Put plainly: co-sedimentation.

B1: FtsZ (Escherichia coli, wild type) (natural protein)
chain: MFEPMELTNDAVIKVIGVGGGGGNAVEHMVRERIEGVEFFAVNTDAQALRKTAVGQTIQIGSGITKGLGAGANPEVGRNAADEDRDALRAALEGADMVFIAAGMGGGTGTGAAPVVAEVAKDLGILTVAVVTKPFNFEGKKRMAFAEQGITELSKHVDSLITIPNDKLLKVLGRGISLLDAFGAANDVLKGAVQGIAELITRPGLMNVDFADVRTVMSEMGYAMMGSGVASGEDRAEEAAEMAISSPLLEDIDLSGARGVLVNITAGFDLRLDEFETVGNTIRAFASDNATVVIGTSLDPDMNDELRVTVVATGIGMDKRPEITLVTNKQVQQPVMDRYQQHGMAPLTQEQKPVAKVVNDNAPQTAKEPDYLDIPAFLRKQAD
B1: the binding result (in data set [1]; in the data set with FtsA(E14R)) was “binds” throughout.
